The source of these data is US20110263454A1, “Methods of Identifying Functional Characteristics of Promoters, Transcription Modifying Proteins and Transcription Modulating Agents” (Salk Institute for Biological Studies, priority 2008, published 2011).

Assay [1] concerns mADRP promoter. Kind of assay: NHR-promoter luciferase screen, mADRP promoter. Format: cell-based, mouse. The following applies: for Luc. act., normalized to lacZ / Normalized Luc. act., normalized to control: ADRP promoter, HR/ligand component; for mADRP promoter reporter activity: transcription factor +/- ligand, control = 1.00. Summed up:
(§1)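 CV-1 cells were co-transfected with 50 ng NHR (homodimer or NHR/RXR heterodimer), 100 ng promoter-luciferase construct and 50 ng LacZ. Luciferase was normalized to LacZ and to a no-NHR/no-ligand control.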

Assay [2] deals with MCP-1 promoter. Briefly: NHR-promoter luciferase screen, MCP-1 promoter. Format: cell-based. The following applies: for Normalized Luc. act., normalized to control / Luc. act., normalized to lacZ: MCP-1 promoter reporter; for Normalized Luc. act., normalized to control: HR without or with its ligand, relative to control; for Luc. act., normalized to lacZ: hormone receptor (HR) without or with its ligand; for mMCP-1 promoter reporter activity: transcription factor +/- ligand, control = 1.00. Summed up: as §1

Assay [3] has as its system mPgc1b promoter. Briefly: NHR-promoter luciferase screen, mPgc1b promoter. In kind it is cell-based, mouse. The following applies: for Luc. act., normalized to lacZ / Normalized Luc. act., normalized to control: PGC1b promoter reporter, co-transfected HR, without or with its ligand; for Normalized Luc. act., normalized to control: relative to control; for luciferase activity normalized to lacZ activity and to a control, mPgc1b: mPgc1b promoter-luciferase, CV-1 cells, NHR +/- ligand, control = 1.00. Summed up:
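Luciferase reporter read-out after co-expression in CV-1 cells of V5H6-tagged receptor (alone or with RXR), the promoter construct and LacZ. Values are luciferase/LacZ relative to a control lacking NHR or ligand; orphan receptors tested ligand-free.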

In assay [4] the test system is hCAR promoter. Kind of assay: NHR-promoter luciferase screen, hCAR promoter. Format: cell-based, human. The following applies: for luciferase activity normalized to lacZ activity and to a control, hCAR: hCAR promoter-luciferase, CV-1 cells, NHR +/- ligand, control = 1.00; for Luc. act., normalized to lacZ / Normalized Luc. act., normalized to control: hCAR promoter, HR/ligand component. Summed up: as §1

In assay [5] the test system is hG6PD promoter. Kind of assay: NHR-promoter luciferase screen, hG6PD promoter. In kind it is cell-based, human. The following applies: for Luc. act., normalized to lacZ / Normalized Luc. act., normalized to control: G6PD promoter reporter, co-transfected HR, without or with its ligand; for Normalized Luc. act., normalized to control: relative to control; for luciferase activity normalized to lacZ activity and to a control, hG6PD: hG6PD promoter-luciferase, CV-1 cells, NHR +/- ligand, control = 1.00. Summed up: as §1

Assay [6] concerns SREBP1c promoter. Kind of assay: NHR-promoter luciferase screen, SREBP1c promoter. In kind it is cell-based, mouse. As to conditions: for Luc. act., normalized to lacZ / Normalized Luc. act., normalized to control: SREBP1c promoter, HR component without or with ligand; for mSREBP1-c promoter reporter activity: transcription factor +/- ligand, control = 1.00. Summed up: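 Values are luciferase activity normalised to LacZ (transfection control) and to a control lacking NHR or ligand. Read-out at 48 h in CV-1 cells carrying 100 ng promoter-reporter, 50 ng receptor (alone or with RXR) and 50 ng LacZ.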

B1: RARb: Retinoic acid receptor β (NR1B2), nuclear hormone receptor cDNA driver (protein, UniProt P10826 1-455, looked up)
Retinoic acid receptor beta: MTTSGHACPVPAVNGHMTHYPATPYPLLFPPVIGGLSLPPLHGLHGHPPPSGCSTPSPATIETQSTSSEELVPSPPSPLPPPRVYKPCFVCQDKSSGYHYGVSACEGCKGFFRRSIQKNMIYTCHRDKNCVINKVTRNRCQYCRLQKCFEVGMSKESVRNDRNKKKKETSKQECTESYEMTAELDDLTEKIRKAHQETFPSLCQLGKYTTNSSADHRVRLDLGLWDKFSELATKCIIKIVEFAKRLPGFTGLTIADQITLLKAACLDILILRICTRYTPEQDTMTFSDGLTLNRTQMHNAGFGPLTDLVFTFANQLLPLEMDDTETGLLSAICLICGDRQDLEEPTKVDKLQEPLLEALKIYIRKRRPSKPHMFPKILMKITDLRSISAKGAERVITLKMEIPGSMPPLIQEMLENSEGHEPLTPSSSGNTAEHSPSISPSSVENSGVSQSPLVQ
B1: in assay [1], the “Luc. act., normalized to lacZ” value stood at 799.4; the “Normalized Luc. act., normalized to control” value amounted to 1.6; the “mADRP promoter reporter activity” value is given as 1.61. Moreover, in assay [2], the “Normalized Luc. act., normalized to control” value was 1.8; the “Luc. act., normalized to lacZ” value is recorded as 197.0; the “mMCP-1 promoter reporter activity” value amounted to 1.84. For the same molecule, in assay [3], the “Luc. act., normalized to lacZ” value is on record as 14.32; the “Normalized Luc. act., normalized to control” value was 1.2; the “luciferase activity normalized to lacZ activity and to a control, mPgc1b” value (from here on “luciferase activity normalized … mPgc1b”) was determined as 1.21. For the same molecule, in assay [4], the “luciferase activity normalized to lacZ activity and to a control, hCAR” value (“luciferase activity normalized … hCAR” below) worked out at 1.31; the “Luc. act., normalized to lacZ” value came out at 41.4; the “Normalized Luc. act., normalized to control” value is recorded as 1.3. Moreover, in assay [5], the “Luc. act., normalized to lacZ” value stood at 56.6; the “Normalized Luc. act., normalized to control” value was 1.5; the “luciferase activity normalized to lacZ activity and to a control, hG6PD” value (“luciferase activity normalized … hG6PD” for short) was found to be 1.52. In assay [6], the “Luc. act., normalized to lacZ” value amounted to 1056.4; the “Normalized Luc. act., normalized to control” value is 3.3; the “mSREBP1-c promoter reporter activity” value is 3.28.

B2: RVRb: Rev-Erb β (NR1D2, alternative name RVR), cDNA driver (protein, UniProt Q14995 1-579, looked up)
Nuclear receptor subfamily 1 …: MEVNAGGVIAYISSSSSASSPASCHSEGSENSFQSSSSSVPSSPNSSNSDTNGNPKNGDLANIEGILKNDRIDCSMKTSKSSAPGMTKSHSGVTKFSGMVLLCKVCGDVASGFHYGVHACEGCKGFFRRSIQQNIQYKKCLKNENCSIMRMNRNRCQQCRFKKCLSVGMSRDAVRFGRIPKREKQRMLIEMQSAMKTMMNSQFSGHLQNDTLVEHHEQTALPAQEQLRPKPQLEQENIKSSSPPSSDFAKEEVIGMVTRAHKDTFMYNQEQQENSAESMQPQRGERIPKNMEQYNLNHDHCGNGLSSHFPCSESQQHLNGQFKGRNIMHYPNGHAICIANGHCMNFSNAYTQRVCDRVPIDGFSQNENKNSYLCNTGGRMHLVCPMSKSPYVDPHKSGHEIWEEFSMSFTPAVKEVVEFAKRIPGFRDLSQHDQVNLLKAGTFEVLMVRFASLFDAKERTVTFLSGKKYSVDDLHSMGAGDLLNSMFEFSEKLNALQLSDEEMSLFTAVVLVSADRSGIENVNSVEALQETLIRALRTLIMKNHPNEASIFTKLLLKLPDLRSLNNMHSEELLAFKVHP
Regarding B2, in assay [1], the “Luc. act., normalized to lacZ” value is 353.2; the “Normalized Luc. act., normalized to control” value is given as 0.7; the “mADRP promoter reporter activity” value worked out at 0.71. Also, in assay [2], the “Normalized Luc. act., normalized to control” value turned out to be 1.6; the “Luc. act., normalized to lacZ” value was found to be 170.4; the “mMCP-1 promoter reporter activity” value is given as 1.59. In assay [3], the “Luc. act., normalized to lacZ” value is listed as 9.3; the “Normalized Luc. act., normalized to control” value was found to be 0.8; the “luciferase activity normalized … mPgc1b” value is 0.78. In assay [4], the “luciferase activity normalized … hCAR” value is 1.13; the “Luc. act., normalized to lacZ” value was determined as 35.7; the “Normalized Luc. act., normalized to control” value was 1.1. In addition, in assay [5], the “Luc. act., normalized to lacZ” value is given as 55.5; the “Normalized Luc. act., normalized to control” value is 1.5; the “luciferase activity normalized … hG6PD” value is listed as 1.48. In assay [6], the “Luc. act., normalized to lacZ” value stood at 721.7; the “Normalized Luc. act., normalized to control” value stood at 2.2; the “mSREBP1-c promoter reporter activity” value is 2.24.

B3: RARg: Retinoic acid receptor γ (NR1B3), nuclear hormone receptor cDNA driver (protein, UniProt P13631 1-454, looked up)
Retinoic acid receptor gamma: MATNKERLFAAGALGPGSGYPGAGFPFAFPGALRGSPPFEMLSPSFRGLGQPDLPKEMASLSVETQSTSSEEMVPSSPSPPPPPRVYKPCFVCNDKSSGYHYGVSSCEGCKGFFRRSIQKNMVYTCHRDKNCIINKVTRNRCQYCRLQKCFEVGMSKEAVRNDRNKKKKEVKEEGSPDSYELSPQLEELITKVSKAHQETFPSLCQLGKYTTNSSADHRVQLDLGLWDKFSELATKCIIKIVEFAKRLPGFTGLSIADQITLLKAACLDILMLRICTRYTPEQDTMTFSDGLTLNRTQMHNAGFGPLTDLVFAFAGQLLPLEMDDTETGLLSAICLICGDRMDLEEPEKVDKLQEPLLEALRLYARRRRPSQPYMFPRMLMKITDLRGISTKGAERAITLKMEIPGPMPPLIREMLENPEMFEDDSSQPGPHPNASSEDEVPGGQGKGGLKSPA
Regarding B3, in assay [1], the “Luc. act., normalized to lacZ” value came out at 765.4; the “Normalized Luc. act., normalized to control” value worked out at 1.5; the “mADRP promoter reporter activity” value was found to be 1.54. Moreover, in assay [2], the “Normalized Luc. act., normalized to control” value came to 1.6; the “Luc. act., normalized to lacZ” value is 167.8; the “mMCP-1 promoter reporter activity” value came out at 1.57. Moreover, in assay [3], the “Luc. act., normalized to lacZ” value is recorded as 12.70; the “Normalized Luc. act., normalized to control” value is listed as 1.1; the “luciferase activity normalized … mPgc1b” value turned out to be 1.07. In addition, in assay [4], the “luciferase activity normalized … hCAR” value is given as 0.99; the “Luc. act., normalized to lacZ” value came out at 31.4; the “Normalized Luc. act., normalized to control” value amounted to 1.0. In assay [5], the “Luc. act., normalized to lacZ” value turned out to be 58.8; the “Normalized Luc. act., normalized to control” value is recorded as 1.6; the “luciferase activity normalized … hG6PD” value is 1.57. Besides, in assay [6], the “Luc. act., normalized to lacZ” value is 1052.4; the “Normalized Luc. act., normalized to control” value was 3.3; the “mSREBP1-c promoter reporter activity” value worked out at 3.27.

B4: RARa: Retinoic acid receptor α (NR1B1), nuclear hormone receptor cDNA driver (protein, UniProt P10276 1-462, looked up)
Retinoic acid receptor alpha: MASNSSSCPTPGGGHLNGYPVPPYAFFFPPMLGGLSPPGALTTLQHQLPVSGYSTPSPATIETQSSSSEEIVPSPPSPPPLPRIYKPCFVCQDKSSGYHYGVSACEGCKGFFRRSIQKNMVYTCHRDKNCIINKVTRNRCQYCRLQKCFEVGMSKESVRNDRNKKKKEVPKPECSESYTLTPEVGELIEKVRKAHQETFPALCQLGKYTTNNSSEQRVSLDIDLWDKFSELSTKCIIKTVEFAKQLPGFTTLTIADQITLLKAACLDILILRICTRYTPEQDTMTFSDGLTLNRTQMHNAGFGPLTDLVFAFANQLLPLEMDDAETGLLSAICLICGDRQDLEQPDRVDMLQEPLLEALKVYVRKRRPSRPHMFPKMLMKITDLRSISAKGAERVITLKMEIPGSMPPLIQEMLENSEGLDTLSGQPGGGGRDGGGLAPPPGSCSPSLSPSSNRSSPATHSP
Take B4: in assay [1], the “Luc. act., normalized to lacZ” value is given as 628.8; the “Normalized Luc. act., normalized to control” value was 1.3; the “mADRP promoter reporter activity” value was 1.26. Besides, in assay [2], the “Normalized Luc. act., normalized to control” value was determined as 1.7; the “Luc. act., normalized to lacZ” value came to 182.3; the “mMCP-1 promoter reporter activity” value was found to be 1.70. In assay [3], the “Luc. act., normalized to lacZ” value was found to be 12.69; the “Normalized Luc. act., normalized to control” value came to 1.1; the “luciferase activity normalized … mPgc1b” value stood at 1.07. Also, in assay [4], the “luciferase activity normalized … hCAR” value turned out to be 1.05; the “Luc. act., normalized to lacZ” value came out at 33.2; the “Normalized Luc. act., normalized to control” value is on record as 1.1. In assay [5], the “Luc. act., normalized to lacZ” value came to 57.1; the “Normalized Luc. act., normalized to control” value is reported as 1.5; the “luciferase activity normalized … hG6PD” value stood at 1.53. In assay [6], the “Luc. act., normalized to lacZ” value was found to be 854.2; the “Normalized Luc. act., normalized to control” value was 2.7; the “mSREBP1-c promoter reporter activity” value was found to be 2.65.
